Data as given in patent US20080280313.

Assays:
β-casein (Sigma) = β-casein (Sigma) (UniProt P02666)
[1] = tested on: CaM kinase II substrate (281-291) MHKNETVECLK (Calbiochem)
[2] = tested on: CKI phosphopeptide substrate KRRRALS(p)VASLPGL (New England Biolabs)
[3] = tested on: CKII substrate RRREEETEEE (New England Biolabs)
[4] = target: partially dephosphorylated α-casein (Sigma) (UniProt P02662)
[5] = tested on: CKI substrate DDDEESITRR (Promega)
[6] = tested on: kemptide LRRASLG (Promega)
[7] = tested on: CKII substrate RRADDSDDDDD (Calbiochem)
[8] = tested on: Syntide-2 substrate PLARTLSVAGLPGKK (Calbiochem)

Sequence of β-casein (Sigma) (P02666 16-224): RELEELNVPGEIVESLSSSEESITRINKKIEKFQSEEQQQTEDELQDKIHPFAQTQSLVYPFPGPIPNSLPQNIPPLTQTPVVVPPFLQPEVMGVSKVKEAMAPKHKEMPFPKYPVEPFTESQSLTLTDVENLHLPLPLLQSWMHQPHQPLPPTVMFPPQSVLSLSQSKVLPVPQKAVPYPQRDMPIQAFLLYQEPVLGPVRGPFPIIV
Sequence of partially dephosphorylated α-casein (Sigma) (P02662 16-214): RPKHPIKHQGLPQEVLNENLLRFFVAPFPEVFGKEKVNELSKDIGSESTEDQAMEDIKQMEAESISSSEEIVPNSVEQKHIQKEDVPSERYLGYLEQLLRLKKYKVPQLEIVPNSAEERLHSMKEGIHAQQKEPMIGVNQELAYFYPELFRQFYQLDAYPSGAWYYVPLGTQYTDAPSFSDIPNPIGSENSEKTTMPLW

| Substance | Km(app) (β-casein (Sigma)) [µM] | Vmax(app) (nmole min^-1 mg^-1) (β-casein (Sigma)) | kinase activity with peptide substrate [1] | Km(app) [2] [µM] | Vmax(app) (nmole min^-1 mg^-1) [2] | kinase activity with peptide substrate [3] | Km(app) [4] [µM] | Vmax(app) (nmole min^-1 mg^-1) [4] | kinase activity with peptide substrate [5] | kinase activity with peptide substrate [6] | kinase activity with peptide substrate [7] | kinase activity with peptide substrate [8] |
| --- | --- | --- | --- | --- | --- | --- | --- | --- | --- | --- | --- | --- |
| FLAGTgCKIα, N-terminal FLAG epitope tagged Toxoplasma gondii casein kinase I alpha | 30 | 8 | failed to show concentration dependent kinase activity | 80 | 26 | failed to show concentration dependent kinase activity | 4 | 8 | failed to show concentration dependent kinase activity | failed to show concentration dependent kinase activity | failed to show concentration dependent kinase activity | failed to show concentration dependent kinase activity |
| native TgCKIα, partially purified from Toxoplasma gondii tachyzoites | 13 | – | failed to show concentration dependent kinase activity | 20 | – | failed to show concentration dependent kinase activity | 3 | – | failed to show concentration dependent kinase activity | failed to show concentration dependent kinase activity | failed to show concentration dependent kinase activity | failed to show concentration dependent kinase activity |
